From article PMC6682002 (ACS Omega, 2019)
Numbering of substitutions follows the chain as printed.

B1: recombinant ClpP2 (rClpP2) of Leptospira interrogans, LIC11951 (enzyme, UniProt Q72R01 1-197, looked up)
chain: MPETEKIAEVFEELTGSKISKNFLDHRKIFLWGPVTDESSKDLVGKLLYLEMKDPGKKITFYINSPGGVVTSGMTVFDTIKMISSPVHTVCMGMAASMGSVLLAAGTKGERSIWPNGKVMIHQPSIGGQIVAPATDLKIHAEEILKTKTKLNQILADACGHPISKLEEDTDRDYYMDAEEAIKYGIVDKLATKIDFN
B2: rClpP2S97A, catalytic serine mutant of recombinant ClpP2 of Leptospira interrogans (enzyme, UniProt Q72R01 1-197, looked up)
chain: B1 chain with S97A
B3: rClpP1S98A, catalytic serine mutant of recombinant ClpP1 of Leptospira interrogans (enzyme)
chain: not shown
B4: recombinant ClpP1 (rClpP1) of Leptospira interrogans, LIC11417 (enzyme)
chain: not shown

Columns and labels:
cross-linking = target: the molecule itself; assay: cross-linking
native gel or EMSA = target: the molecule itself; assay: native gel or EMSA
[1] = target: B4; assay: ITC
SEC = target: the molecule itself; assay: SEC
[2] = target: B1; assay: ITC

Row | Binder | stoichiometry N (cross-linking) | stoichiometry N (native gel or EMSA) | Kd [1] [nM] | binding result (native gel or EMSA) | stoichiometry N (SEC) | dH [2] [cal^–1 mol^–1] | stoichiometry N [2]
1 | B1 | 7 | 14 | 2020 ± 100 |  |  |  | 
2 | B2 |  |  |  | binds |  |  | 
3 | B3 |  |  |  | binds |  |  | 
4 | B4 | 7 | 21 |  |  | 14 | -30200 ± 2640 | 0.945 ± 0.05
